In the supplement of paper PMC7877785:
± gives the uncertainty stated by the source.

Test: self-splicing fitness, log relative to wild type (ln ratio); higher = more splicing; Tetrahymena group I intron in knt gene, E. coli kanamycin selection, DiMSum; sequences stand for … in CUCUCU…GGAGGGAAAAGUUAUCAGGCAUGCACCUGGUAGCUAGUCUUUAAACCAAUAGAUUGCAUCGGUUUAAAAGGCAAGACCGUCAAAUUGCGGGAAAGGGGUCAACAGCCGUUCAGUACCAAGUCUCAGGGGAAACUUUGAGAUGGCCUUGCAAAGGGUAUGGUAAUAAGCUGACGGACAUGGUCCUAACCACGCAGCCAAGUCCUAAGUCAACAGAUCUUCUGUUGAUAUGGAUGCAGUUCACAGACUAAAUGUCGGUCGGGGAAGAUGUAUUCUUCUCAUAAGAUAUAGUCGGACCUCUCCUUAAUGGGAGCUAGCGGAUGAAGUGAUGCAACACUGGAGCCGCUGGGAACUAAUUUGUAUGCGAAAGUAUAUUGAUUAGUUUUGGAGUACUCGUGGUCG
How it was run: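 Pooled colonies went to amplicon sequencing on an Illumina HiSeq 2500 after six replicate transformations. The plates were LB agar with 100 μg/mL carbenicillin, 50 μM IPTG and 0.2% rhamnose, with or without 25 μg/mL kanamycin, incubated overnight at 37°C or 30°C. The E. coli BL21(DE3) library had all eight P1ex-region intron nucleotides randomised, the intron placed in the knt kanamycin-resistance gene on pET-22b(+). DiMSum fitness is the error-weighted combination of replicate fold changes, kanamycin against none, normalised to wild type.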

Row | Sequence | self-splicing fitness (ln) (30 °C) | self-splicing fitness (ln) (37 °C)
1 | CUCCAGCAAUAUUACGACCU | -3.4 ± 0.32 | 
2 | CUCCAGCAAUAUUACGAGGA | -2.35 ± 0.11 | -2.99 ± 0.18
3 | CUCCAGCAAUAUUACGCCAU | -3.28 ± 0.31 | -2.34 ± 0.25
4 | CUCCAGCAAUAUUACGCGAC | -3.79 ± 0.2 | -2.31 ± 0.18
5 | CUCCAGCAAUAUUACGCGAG | -2.19 ± 0.2 | -2.94 ± 0.3
6 | CUCCAGCAAUAUUACGCGCG | -3.29 ± 0.17 | -0.928 ± 0.15
7 | CUCCAGCAAUAUUACGCUAC | -4.08 ± 0.29 | -2.75 ± 0.23
8 | CUCCAGCAAUAUUACGCUUG | -3.52 ± 0.19 | -2.96 ± 0.21
9 | CUCCAGCAAUAUUACGGGAG | -3.68 ± 0.15 | -1.91 ± 0.16
10 | CUCCAGCAAUAUUACGGUAG | -3.88 ± 0.19 | -3.24 ± 0.27
11 | CUCCAGCAAUAUUACGGUCC | -3.11 ± 0.17 | -2.83 ± 0.38
12 | CUCCAGCAAUAUUACGUACU | -3.3 ± 0.29 | -3.21 ± 0.28
13 | CUCCAGCAAUAUUACGUCAG | -1.2 ± 0.067 | -0.906 ± 0.098
14 | CUCCAGCAAUAUUACGUCUU | -4.45 ± 0.28 | -2.88 ± 0.16
15 | CUCCAGCAAUAUUACGUGAU | -2.1 ± 0.078 | -1.59 ± 0.1
16 | CUCCAGCAAUAUUACGUUAA | -3.9 ± 0.25 | -2.68 ± 0.36
17 | CUCCAGCAAUAUUACGUUUA | -3.31 ± 0.27 | -2.27 ± 0.18
18 | CUCGAGCAAUAUUACGACGG | -1.94 ± 0.15 | -0.385 ± 0.18
19 | CUCGAGCAAUAUUACGAUGA | -2.19 ± 0.19 | -1.36 ± 0.2
20 | CUCGAGCAAUAUUACGCCUG | -3.03 ± 0.24 | -2.58 ± 0.49
21 | CUCGAGCAAUAUUACGCGGG | -3.9 ± 0.39 | 
22 | CUCGAGCAAUAUUACGCGUC |  | -2.79 ± 0.32
23 | CUCGAGCAAUAUUACGCUUA | -2.27 ± 0.47 | -2.22 ± 0.34
24 | CUCGAGCAAUAUUACGGAGA | -2.57 ± 0.36 | -1.72 ± 0.28
25 | CUCGAGCAAUAUUACGGAUA | -2.79 ± 0.28 | -3.68 ± 0.46
26 | CUCGAGCAAUAUUACGGCUU | -2.57 ± 0.47 | 

Row | Sequence | self-splicing fitness (ln) (30 °C) | self-splicing fitness (ln) (37 °C)
27 | CUCGAGCAAUAUUACGGGUG | -2.04 ± 0.077 | -1.88 ± 0.095
28 | CUCGAGCAAUAUUACGGUUA | -2.71 ± 0.16 | -1.58 ± 0.13
29 | CUCGAGCAAUAUUACGUAUU | -3.51 ± 0.15 | -1.96 ± 0.14
30 | CUCGAGCAAUAUUACGUGAC | -2.55 ± 0.17 | -1.73 ± 0.16
31 | CUCGAGCAAUAUUACGUGCA | -2.2 ± 0.17 | -1.01 ± 0.17
32 | CUCGAGCAAUAUUACGUGCU | -2.36 ± 0.24 | 
33 | CUCGAGCAAUAUUACGUGGC |  | -0.934 ± 0.32
34 | CUCGAGCAAUAUUACGUGUC |  | -2.76 ± 0.27
35 | CUCGAGCAAUAUUACGUUCC | -3.4 ± 0.19 | -2.63 ± 0.27
36 | CUCGAGCAAUAUUACGUUCU | -3.52 ± 0.17 | -2.8 ± 0.18
37 | CUCGAGCAAUAUUACGUUGA | -3.86 ± 0.28 | -2.63 ± 0.38
38 | CUCGAGCAAUAUUACGUUGG | -3.48 ± 0.18 | -3.17 ± 0.14
39 | CUCUAGCAAUAUUACGAACA |  | -2.98 ± 0.34
40 | CUCUAGCAAUAUUACGAGGC | -3.18 ± 0.36 | 
41 | CUCUAGCAAUAUUACGAGGU | -3.21 ± 0.26 | -3.6 ± 0.29
42 | CUCUAGCAAUAUUACGCCGC |  | -3.15 ± 0.43
43 | CUCUAGCAAUAUUACGCGGC | -2.81 ± 0.3 | -2.45 ± 0.3
44 | CUCUAGCAAUAUUACGGACA | -2.52 ± 0.47 | -2.66 ± 0.4
45 | CUCUAGCAAUAUUACGGACG | -0.959 ± 0.14 | -0.0675 ± 0.16
46 | CUCUAGCAAUAUUACGGCAU | -4.62 ± 0.39 | -3.62 ± 0.42
47 | CUCUAGCAAUAUUACGGGAU | -2.37 ± 0.11 | -3.45 ± 0.16
48 | CUCUAGCAAUAUUACGGGGG | -3.07 ± 0.3 | -2.38 ± 0.26
49 | CUCUAGCAAUAUUACGGGUA | -2.21 ± 0.14 | -1.05 ± 0.12
50 | CUCUAGCAAUAUUACGGUUA |  | -3.24 ± 0.29
51 | CUCUAGCAAUAUUACGUAAU | -3.59 ± 0.26 | -3.77 ± 0.46
